B1: TDP-43 N-terminal domain (NTD), wild-type, residues 1-80 (domain or fragment)
chain: GHMMSEYIRVTEDENDEPIEIPSEDDGTVLLSTVTAQFPGACGLRYRNPVSQCMRGVRLVEGILHAPDAGWGNLVYVVNYPKD
notes: three additional N-terminal residues left by the cloning strategy and TEV cleavage; TDP-43 N-terminal domain, residues 1-80 (codon of N81 changed to a stop codon); 15N-labelled or natural abundance, depending on the NMR experiment; also called TDP-43 NTD; NTD WT; source: E. coli BL21 Star DE3, purified (Histrap, TEV cleavage, SEC); not shown: Thioredoxin, N-terminal, cleaved; His6, N-terminal, …
B2: TDP-43 NTD S48E, residues 1-80 (domain or fragment)
chain: B1 chain with S51E
notes: three additional N-terminal residues left by the cloning strategy and TEV cleavage; TDP-43 N-terminal domain, residues 1-80, phosphomimetic S48E; 15N-, 13C/15N-labelled or natural abundance, depending on the NMR experiment; also called S48E TDP-43 NTD; S48E 1-80 NTD; source: E. coli BL21 Star DE3, purified (Histrap, TEV cleavage, SEC); not shown: Thioredoxin, N-terminal, cleaved; His6, …

Data set [1] deals with the molecule itself. In words: CG-MALS; composition gradient multi-angle light scattering, 20 mM HEPES pH 6.8, 150 mM NaCl, 1 mM DTT; isodesmic self-association model, each addition of a monomer.
Data set [2] concerns the molecule itself. Kind of data set: AUC; sedimentation equilibrium, 28.28-89.23 μM, 150 mM NaCl, 20°C, 12,000, 25,000 and 43,000 rpm; isodesmic model, single KD for each association step.
Data set [3] deals with the molecule itself. In words: cross-linking; amine cross-linker BS3, 20 mM HEPES pH 7.5, 150 mM NaCl, 1 mM DTT, room temperature 30 min, SDS-PAGE; samples of 10-200 μM.
The target of data set [4] is TDP-43 NTD S48E, residues 1-80 (UniProt Q13148). In words: CG-MALS; composition gradient multi-angle light scattering, 20 mM HEPES pH 6.8, 150 mM NaCl, 1 mM DTT; isodesmic self-association model, each addition of a monomer.
For data set [5], the target named is B1. In words: NMR titration; 1H-15N HSQC chemical shift deviations of 10 μM 15N-labelled protein with 90 μM natural abundance partner, against 10 μM alone. The note with it: both partners purified.

Substitutions are numbered along the chain they refer to. Numbers in names are those of the source. A value given as a limit tells only on which side of the number the result lay.

By Kd is commonly meant the free concentration of one partner at which half of the binding sites on the other are occupied at equilibrium, for simple one-to-one binding. For orientation: stoichiometry N means a count of units in the complex or per binding partner. In the case of B1, the results for the Kd in data set [1] and in data set [2] were 95 µM and about 40 µM, respectively. In addition, the “stoichiometry N” value in data set [3] was at most 7.
In the case of B2, the Kd in data set [4] stood at 2000 µM. The binding result in data set [5] is recorded as “binds”.

Source of the values: publication PMC5830921, “A single N‐terminal phosphomimic disrupts TDP‐43 polymerization, phase separation, and RNA splicing” (The EMBO Journal, 2018).
